Measured values: a protein production outcome set (Wang et al. 2014)
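Note: failed if final PepcDB status was selected cloned or expressed and not failed if soluble or beyond.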

Assay: label from the status in PepcDB records
In the case of “MEVVVVGDAQAMAGRVPTVMHVRCPDRLREGVYRQVLELLTDLSPVVQALPPTAALVELKGALRYHGSEVHRLGEVLRVRTLSRLGVDVRVGIGPSITIAATASAQVPLPGGVLTVAPDDVTDWLAPLPGEALHGLGPRQAGALHEYGIHTVGLLAAVSPETVQRLLGGKAGRLAADRARGRDPRPVVPRALPAAATVRMRFDRHVLDGADVRAALLDLVVQLGRLLRRRGQAARAVSLTLQFAGGGSWEKSRRLPEPSAHDEDLRTMAYRLIDAAGLQRGRLTGLFLKADDLVDADRVAQQISLDQAREARLVAEATVDRVRDKFGPGVIGPAATARRAS”, the protein production is reported as “failed”.
With “MEVYTTENEQVDVLRRFLAENGKALVVGVVLGVGALVGWRFWQSHQNDSVQAASASYQQVTEQLAEGKAEAIASTEKFTAENKNTYGALASLELARHYVDQKDFAKAVQQLVQAQSQTKDADLLAVVNLRLARVQLQENKADDALKTLDAIKLEGWASQAAEVRGDILASKGDNQAARDAYNKGLSSNPSQAQQALLRMKLNNLSS” the protein production was “failed”.
In the case of “MEWGGLDERQICWQVNGRGGQGLAGCSFLRGVRKRSRPPRLLPSRPPAAMSTFERHIIKRLLKGFVLFVGALLVFFIVLHWVEYSDDFLDGGATIWEVFTVFYPNYVPEIIRLTSPLALFLSCIYLTGTLAQELQLVALQTSGVSLYQLMRPYLGVGLLVTVFMFGFNGWVVPKTNEVVVRYENEYLPGNQKSVQTSEIHRRNGPNSILSVGYYDADRERAHTVSLQQLAGDARLARRVDANRMEWDDSLEVWRLDDVTRRTFVKGETQRKRTIASLDTTLQVYPRDLARSKNDVAAMTIPAAAEYLAALRRSGVGGLTRPLVAYYNKFAYPFANLLLVLIGVPIASTRRRGGQAVRFAIGLLIAFVYLSVQKLAEPLGYAGTLSPAWTAWLPHLTFAVVALLVLWWARK”, the protein production is reported as “failed”.
In the case of “MEWKLERTAPRRVRTEEEMLWESIMRVLSKDLKQKRSQDSANVLDSVNATYSDFKSNFAKRLSAEVPVASSPITTRWQQSQTRALSSDSFGEEQSTTYLPEASGSVLKTPPEKETLTLGSCKEQLKTPSKGISETSNSALHFCKAPHAMDRDWKESVASKGQKCLKQLFVTQNVVQQANGKMQLCEQSECVWKGCKDGVRDESFHLKSSGDINDSILQPEVKIHITGLRNDYYLNILDWSFQNLVAIALGSAVYIWNGENHNGIENIDLSLTCNYISSVSWIKEGTCLAVGTSEGEVQLWDVVTKKRLRNMLGHLSVVGALSWNHFILSSGSRLGRVYHHDVRVAQHHVGTLRHKQAVCALKWSPDGRLLSSGCSDGLLTIWPHDPGASAQGQPLKVITQSTAVKAMDWCPWQSGVLAIGGGMKDGRLHILDINAGKSIQTPSTNSQICSLIWLPKTKEIATGQGTPKNDVTVWTCPTVSRSGGFFGHRGRVLHLALSPDQTWVFSAAADGTASVWNCY”, the protein production is reported as “failed”.
In the case of “MEWLEQLLGKEWSLVPAGGVTGDAYIAQNGQQKLFLKRNTSPFLAVLSAEGIVPKLLWTRRVTNGDVISAQKWLPGQKLEPEDMKLERVAKLLKKIHSSKALVQMIQRLGKQPLHAQELLQQLQLVLRGDIRDEETIQQGLQYLMDSLKDIEYNEFVVCHCDVNHNNWLLSDEDELFLIDWDGAVIADPALDLGMLLYWYIPRQEWSEWLGYYDIEMDESLLKRMRWYVIAQTILSIQWHTTKKQQAEAEYWHQYLQQLLASE”, the protein production is reported as “failed”.
With “MEYALLQHYWWFLVSLLGALLVFLLFVQGGQSFLFSLGKDELTQKMMVNSTGRKWEFTFTTLVTFGGALFASFPLFYSTSFGGAYWVWMLILFCFIIQAVSYEYQSKHGNVWGRKTYQILLFINGVLAPVLLGTAVSTFFTGSSFVVNKMAMFDLSGGNQIVSAWQPFNGWQLRGLEAVLNLWNVVLGLAVFFLARVSALLYFINNIDDESLYAAAKRRLWANTVAFLIFFLAYIAFLLTTEGFAVNPVSKEVYMEPYKYLYNFLDMPAVLAVFLLGVILVLGGIGLTLLRKGFKRGIWLHGTGTVLTVLALLLVAGWNDTSWYPSTYDLQSSLTIENASSSHFTLKVMSYVSLLIPFVLAYIFYAWRALDIRKITKKEMEQDDHVY” the protein production was “failed”.
In the case of “MFCEKAMELIRELHRAPEGQLPAFNEDGLRQVLEEMKALYEQNQSDVNEAKSGGRSDLIPTIKFRHCSLLRNRRCTVAYLYDRLLRIRALRWEYGSILPNALRFHMAAEEMEWFNNYKRSLATYMRSLGGDEGLDITQDMKPPKSLYIEVRCLKDYGEFEVDDGTSVLLKKNSQHFLPRWKCEQLIRQGVLEHILS”, the protein production is reported as “failed”.
With “MFCLMSKEYLSWDKFIVTKIPSSVKLDPIIYEYIKKDHLILDIGCGVGKVSLQLAFQGFYVEGIDINETGILAAQDSARKLNLADKAHFRVGDAKDLPYMDDKFDIVIMHGLLTIIVDNSDRNKIIQEAYRVLNPEGHLYIVDFGQTWHSDIYRERYLKDFPITKEEGSFLVYNKDTGEIEFISHHYTEKELIFLLVNNGFKIDYFRDFLLFSGFSFSLYIVQNNKILIILIYFFYLWEKETLQ” the protein production was “failed”.
In the case of “MFDIGWSELLVIAVVLIVVVGPKDLPPMIRAFGKTMAGLRKMAGDFRTQFDEALKEADMDDVRQTISDVRNLNPTNSLRDAMNPLRQLGNEIKSDLQKATSPSDGLSSTAAPATSEPVAPLVNVPEPDMKLPDSPPAVAAAPAPVAAASVAAEKPKRARAKSIATVEAEAVAAKPKRVSRSKAVATPETTVATNASEPASPKPTVKTIAKKATVKKIAAEKSVAVADAKPAKAARTKAAKPKKDEA”, the protein production is reported as “failed”.
With “MFDPKLLPATRKILDLPARLLVRVGVSADQVTITGFIIGLLAVPFLAFELYEFALAAILLNRLCDGLDGAVARRTQLTDAGGFLDIVLDFIFYSAVVFGFLLASPEQNAIASGLLLVTFMGTGSTFLAFACIAGKRGIENPEYPNKSLHYMGGLTEGFETILAFVAFCLWPQHFSVLAYIFAAACWLTAITRIVAGYRTLKQPGAKPESTNV” the protein production was “not failed”.
For “MFDRLKTMLIKEAIQILRDPKMRFIILVIPAIQITLFGYAVNTDVKHIATAVYDLDNSALSRDLVARLERSGYFDIVQRVQRGDELRDLLDRGKVRAAVQINRGFEENIRAGRTATLPIIVDGTDPSTARIVVSYSVTIAERFSDQILTDYSLRKSGRTTGGNGIELESRAWFNANLESRNYYVPGVIASMVLITTMMLSSMAVVREKEIGTMEQIIVTPIQRWEFIVGKLVPFAIVGYINVTIVTCIALFWFKIPLRGSILLLIGSTALFLMSTLGFGLLISTISRTQQQAMMSSFMFTFPAMLLSGFAFPIENMPTSIQYATYLNPLRYYLVIVRGIFLKGIGLGILWPQLAALALLGSVVLLFAVGRFKKSVG”, the protein production was “failed”.
For “MFDVAVFGSLFLTLFVIMDPPGITPIFLALTAGRPAKVQKRMAFQAVCVAGGVITVFGLLGHQILDYLHVSVPALMIAGGLLLLLIALDLLTGKTDEPKQTKDVNVALVPLGMPLLAGPGAIVSVILAVQKAGSVATQVSVWAAILAIHVVLWVVMRYSLLIIRVIKDGGVVLVTRLAGMMLSAIAVQQIINGVTQVIRGS”, the protein production was “failed”.
